Assay results taken from patent US20030044768A1 (Dana-Farber, published 2003).
Each block holds one molecule with its values, some of them ahead of it.

B5: B7-1 expressed on transfected COS cells (ligand)
chain: VIHVTKEVKEVATLSCGHNVSVEELAQTRIYWQKEKKMVLTMMSGDMNIWPEYKNRTIFDITNNLSIVILALRPSDEGTYECVVLKYEKDAFKREHLAEVTLSVKADFPTPSISDFEIPTSNIRRIICSTSGGFPEPHLSWLENGEELNAINTTVSQDPETELYAVSSKLDFNMTTNHSFMCLIKYGHLRVNQTFNWNTTKQEHFPDNLLPSWAITLISVNGIFVICCLTYCFAPRCRERRRNERLRRESVRPV
notes: whole, on cells; also called CD80

What was measured:
[1] = biological target: PD-1 on T cells (species not stated); experiment: cell-based or functional assay
[2] = biological target: T1, human PD-1 fused to murine Ig gamma2a (human; murine, UniProt P01863 98-330 = IgG part, limits assumed); experiment: flow cytometry on CHO-IA^d cells, hPD-1-Ig developed with goat anti-murine IgG2a-PE
T1 construct: domain: hinge-CH2-CH3; The Fc mutations are not specified; also called human PD-1 gamma 2a fusion protein; hPD-1-Ig
Protocol: In addition, cells were stained separately with 5 μg/ml anti-IA^d-PE or B7.2-PE (Pharmingen, San Diego, Calif.). Following each step, cells were washed three times with PBS/1% BSA/0.02% sodium azide. After the final incubation, cells were fixed with 1% paraformaldehyde. Ten thousand events were analyzed on a FACSCalibar (Becton Dickinson, Mountain View, Calif.). All isotype controls were obtained from Pharmingen.

[3] = biological target: T2, human PD-1-Fc (human Ig gamma 1) (human, UniProt P01857 99-330 = IgG part); experiment: BIACORE, PD-1-Fc immobilized
T2 construct: domain: hinge-CH2-CH3; also called human PD-1 linked to IgG1

[4] = biological target: T2, human PD-1-Fc (human Ig gamma 1); experiment: in situ staining of transfected COS cell monolayers
Protocol: In addition, an in situ assay of transfected COS cell monolayers was performed. […] Binding was visualized with chromogenic substrates 5-bromo-4-chloro-3-indolyl phosphate and nitro blue tetrazolium and light microscopy.

[5] = biological target: T2, human PD-1-Fc (human Ig gamma 1); experiment: flow cytometry on B7-1-transfected COS cells, anti-IgG-PE
Protocol: COS cells were transfected with either B7-4M or B7-1 using LipofectAMINE transfection reagent. […] The cells were then analyzed by flow cytometry.

[6] = biological target: T3, human B7-4M expressed on transfected COS or CHO cells (human, UniProt Q9NZQ7 19-290); experiment: flow cytometry on CHO cells expressing human B7-4
T3 construct: Full-length B7-4M cDNA expressed on COS or CHO cells; also called PD-L1

[7] = biological target: T4, murine B7-4 expressed on transfected cells (murine, UniProt Q9EP73 19-290); experiment: flow cytometry on CHO cells expressing murine B7-4
T4 construct: also called mouse B7-4; mB7-4

[8] = biological target: T3, human B7-4M expressed on transfected …; experiment: flow cytometry on B7-4M-transfected COS cells
[9] = biological target: B5; experiment: flow cytometry (FITC) on B7-1-transfected COS cells

T2 sequence (P01857 other isoform, or with tags, fused parts or gaps limits assumed): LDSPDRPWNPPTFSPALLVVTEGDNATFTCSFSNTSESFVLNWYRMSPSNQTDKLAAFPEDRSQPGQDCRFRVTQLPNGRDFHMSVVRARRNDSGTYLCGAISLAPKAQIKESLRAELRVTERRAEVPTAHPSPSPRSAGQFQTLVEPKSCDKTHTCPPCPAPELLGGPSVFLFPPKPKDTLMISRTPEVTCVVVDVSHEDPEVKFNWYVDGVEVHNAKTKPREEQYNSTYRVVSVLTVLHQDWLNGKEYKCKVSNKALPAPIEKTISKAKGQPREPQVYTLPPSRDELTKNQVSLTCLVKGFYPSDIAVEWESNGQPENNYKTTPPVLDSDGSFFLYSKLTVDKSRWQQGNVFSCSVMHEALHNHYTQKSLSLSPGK
T3 sequence (Q9NZQ7 19-290): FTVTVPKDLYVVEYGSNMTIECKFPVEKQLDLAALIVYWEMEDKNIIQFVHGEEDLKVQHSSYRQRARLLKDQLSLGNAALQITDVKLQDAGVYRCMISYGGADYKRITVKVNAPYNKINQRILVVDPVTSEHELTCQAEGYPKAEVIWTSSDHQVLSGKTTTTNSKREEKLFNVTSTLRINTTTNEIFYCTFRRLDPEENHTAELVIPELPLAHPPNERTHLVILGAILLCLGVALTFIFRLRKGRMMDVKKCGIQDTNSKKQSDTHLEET
T1 sequence (P01863 other isoform, or with tags, fused parts or gaps limits assumed): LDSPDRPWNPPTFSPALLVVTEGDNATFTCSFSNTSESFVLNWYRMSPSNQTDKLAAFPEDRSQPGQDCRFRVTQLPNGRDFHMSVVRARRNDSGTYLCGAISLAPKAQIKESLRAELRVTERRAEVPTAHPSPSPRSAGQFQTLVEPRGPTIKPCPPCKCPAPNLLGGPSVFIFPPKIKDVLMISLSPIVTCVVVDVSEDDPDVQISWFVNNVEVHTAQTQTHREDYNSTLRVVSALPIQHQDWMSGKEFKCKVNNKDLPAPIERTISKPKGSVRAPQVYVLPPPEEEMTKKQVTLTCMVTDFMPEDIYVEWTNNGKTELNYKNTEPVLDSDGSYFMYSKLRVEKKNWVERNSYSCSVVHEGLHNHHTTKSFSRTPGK
T4 sequence (Q9EP73 19-290 limits assumed): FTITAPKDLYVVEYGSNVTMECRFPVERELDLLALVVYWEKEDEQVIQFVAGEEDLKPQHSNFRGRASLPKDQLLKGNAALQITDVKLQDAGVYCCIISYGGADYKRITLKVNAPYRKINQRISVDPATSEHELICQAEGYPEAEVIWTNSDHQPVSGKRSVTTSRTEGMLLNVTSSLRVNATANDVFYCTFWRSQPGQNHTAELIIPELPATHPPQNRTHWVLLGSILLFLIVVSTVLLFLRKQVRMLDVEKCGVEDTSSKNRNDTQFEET

binding result [2]: no binding (tested: 5 ug/ml)
B1: IA^d expressed on CHO transfectants (CHO-IA^d) (other)
alpha: EDDIEADHVGFYGTTVYQSPGDIGQYTHEFDGDELFYVDLDKKKTVWRLPEFGQLILFEPQGGLQNIAAEKHNLGILTKRSNFTPATNEAPQATVFPKSPVLLGQPNTLICFVDNIFPPVINITWLRNSKSVTDGVYETSFLVNRDHSFHKLSYLTFIPSDDDIYDCKVEHWGLEEPVLKHWEPEIPAPMSELTETVVCALGLSVGLVGIVVGTIFIIQGLRSGGTSRHPGPL
beta: GNSERHFVVQFKGECYYTNGTQRIRLVTRYIYNREEYVRYDSDVGEYRAVTELGRPDAEYWNSQPEILERTRAEVDTACRHNYEGPETSTSLRRLEQPNVAISLSRTEALNHHNTLVCSVTDFYPAKIKVRWFRNGQEETVGVSSTQLIRNGDWTFQVLVMLEMTPHQGEVYTCHVEHPSLKSPITVEWRAQSESARSKMLSGIGGCVLGVIFLGLGLFIRHRSQKGPRGPPPAGLLQ
notes: present on CHO-IA^d, CHO-IA^d/B7.2 and CHO-IA^d/B7.2/B7-4; copies: 1 + 1

binding result [4]: no binding
B4: B7-2 expressed on transfected COS cells (ligand)
chain: APLKIQAYFNETADLPCQFANSQNQSLSELVVFWQDQENLVLNEVYLGKEKFDSVHSKYMGRTSFDSDSWTLRLHNLQIKDKGLYQCIIHHKKPTGMIRIHQMNSELSVLANFSQPEIVPISNITENVYINLTCSSIHGYPEPKKMSVLLRTKNSTIEYDGVMQKSQDNVTELYDVSISLSVSFPDVTSNMTIFCILETDKTRLLSSPFSIELEDPQPPPDHIPWITAVLPTVIICVMVFCLILWKWKKKKRPRNSYKCGTNTMEREESEQTKKREKIHIPERSDEAQRVFKSSKTSSCDKSDTCF
notes: whole, on cells; also called CD86

binding result [8]: no binding | binding result [9]: no binding
B7: murine ICOS-his fusion protein (receptor, UniProt Q9WVS0 21-144, looked up)
chain: EINGSADHRMFSFHNGGVQISCKYPETVQQLKMRLFREREVLCELTKTKGSGNAVSIKNPMLCLYHLSNNSVSFFLNNPDSSQGSYYFCSLSIFDPPPFQERNLSGGYLHIYESQLCCQLKLWL
notes: not shown: his tag

Continued, molecule first:

Molecule: B7-4.Fc / PDL1.Ig fusion protein (species not stated) (Fc fusion)
% CD69+ T cells at 24 hours, anti-CD3/B7-4.Fc (anti-CD3 alone 26%) [1]: 26% | % CD69+ T cells at 48 hours, anti-CD3/B7-4.Fc (anti-CD3 alone 46%) [1]: 36% | % CD69+ T cells at 72 hours, anti-CD3/B7-4.Fc (anti-CD3 alone 63%) [1]: 42% | % IL-2R+ (CD25) T cells at 24 hours, anti-CD3/B7-4.Fc (anti-CD3 alone 17%) [1]: 12% | % IL-2R+ (CD25) T cells at 48 hours, anti-CD3/B7-4.Fc (anti-CD3 alone 29%) [1]: 17% | % IL-2R+ (CD25) T cells at 72 hours, anti-CD3/B7-4.Fc (anti-CD3 alone 54%) [1]: 15% | % apoptotic T cells (propidium iodide and annexin positive) at 24 hours, anti-CD3/B7-4.Fc (anti-CD3 alone 3%) [1]: 3% | % apoptotic T cells at 48 hours, anti-CD3/B7-4.Fc (anti-CD3 alone 5%) [1]: 4% | % apoptotic T cells at 72 hours, anti-CD3/B7-4.Fc (anti-CD3 alone 10%) [1]: 12%

B2: soluble form of human B7-2 (ligand)
chain: APLKIQAYFNETADLPCQFANSQNQSLSELVVFWQDQENLVLNEVYLGKEKFDSVHSKYMGRTSFDSDSWTLRLHNLQIKDKGLYQCIIHHKKPTGMIRIHQMNSELSVLANFSQPEIVPISNITENVYINLTCSSIHGYPEPKKMSVLLRTKNSTIEYDGVMQKSQDNVTELYDVSISLSVSFPDVTSNMTIFCILETDKTRLLSSPFSIELEDPQPPPDHIP
notes: also called soluble B7-2
binding result [3]: no binding

B3: soluble form of human B7-1 (ligand)
chain: VIHVTKEVKEVATLSCGHNVSVEELAQTRIYWQKEKKMVLTMMSGDMNIWPEYKNRTIFDITNNLSIVILALRPSDEGTYECVVLKYEKDAFKREHLAEVTLSVKADFPTPSISDFEIPTSNIRRIICSTSGGFPEPHLSWLENGEELNAINTTVSQDPETELYAVSSKLDFNMTTNHSFMCLIKYGHLRVNQTFNWNTTKQEHFPDN
notes: also called soluble B7-1
binding result [3]: no binding

Molecule: B5
binding result [5]: no binding

B6: murine PD-1-Fc (Fc fusion, UniProt Q02242 25-167, looked up)
chain: LEVPNGPWRSLTFYPAWLTVSEGANATFTCSLSNWSEDLMLNWNRLSPSNQTEKQAAFCNGLSQPVQDARFQIIQLPNRHDFHMNILDTRRNDSGIYLCGAISLHPKAKIEESPGAELVVTERILETSTRYPSPSPKPEGRFQ
notes: also called murine PD-1.Ig; mouse PD-1; not shown: Fc portion
binding result [6]: binds | binding result [7]: binds
